Assay results from the supplement of paper PMC11316812.
± gives the standard deviation of the averaged measurements.

Columns and labels:
MCF7 = test: percentage of EdU-negative (G0-arrested) nuclei per well, 72 h; higher = more G0 arrest; details: reference: sequence is the full UniProt precursor, the tested protein was the secreted form or ectodomain
hTERT-HMEC = test: as above; details: reference: sequence is the full UniProt precursor, the tested protein was the secreted form or ectodomain
[1] = protein concentration 0.0225 µM
[2] = protein concentration 0.0171429 µM
[3] = protein concentration 0.171429 µM
[4] = protein concentration 0.03125 µM
[5] = protein concentration 0.3125 µM
[6] = protein concentration 0.023905 µM
[7] = protein concentration 0.23905 µM
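Note: secreted proteins added to cultured cells, EdU pulse at the end, nuclei found by Hoechst imaging, EdU status from nuclear versus surrounding ring intensity ratio, PBS as neutral control.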

Sequence	percentage of EdU-negative (MCF7; [1]) [%]	percentage of EdU-negative (MCF7; protein concentration 0.225 µM) [%]	percentage of EdU-negative (hTERT-HMEC; [1]) [%]	percentage of EdU-negative (hTERT-HMEC; protein concentration 0.225 µM) [%]	also measured
MQRLRWLRDWKSSGRGLTAAKEPGARSSPLQAMRILQLILLALATGLVGGETRIIKGFECKPHSQPWQAALFEKTRLLCGATLIAPRWLLTAAHCLKPRYIVHLGQHNLQKEEGCEQTRTATESFPHPGFNNSLPNKDHRNDIMLVKMASPVSITWAVRPLTLSSRCVTAGTSCLISGWGSTSSPQLRLPHTLRCANITIIEHQKCENAYPGNITDTMVCASVQEGGKDSCQGDSGGPLVCNQSLQGIISWGQDPCAITRKPGVYTKVCKYVDWIQETMKNN [Q9UBX7]	27.509 ± 0.019	25.5 ± 1.5	5.31 ± 0.64	6.15 ± 0.74	
MRPLLCALTGLALLRAAGSLAAAEPFSPPRGDSAQSTACDRHMAVQRRLDVMEEMVEKTVDHLGTEVKGLLGLLEELAWNLPPGPFSPAPDLLGDGF [Q5JTB6]	28.1 ± 2.1	26 ± 1.2	4.3 ± 0.46	5.25 ± 0.17	
MTSHYVIAIFALMSSCLATAGPEPGALCELSPVSASHPVQALMESFTVLSGCASRGTTGLPQEVHVLNLRTAGQGPGQLQREVTLHLNPISSVHIHHKSVVFLLNSPHPLVWHLKTERLATGVSRLFLVSEGSVVQFSSANFSLTAETEERNFPHGNEHLLNWARKEYGAVTSFTELKIARNIYIKVGEDQVFPPKCNIGKNFLSLNYLAEYLQPKAAEGCVMSSQPQNEEVHIIELITPNSNPYSAFQVDITIDIRPSQEDLEVVKNLILILKCKKSVNWVIKSFDVKGSLKIIAPNSIGFGKESERSMTMTKSIRDDIPSTQGNLVKWALDNGYSPITSYTMAPVANRFHLRLENNAEEMGDEEVHTIPPELRILLDPGALPALQNPPIRGGEGQNGGLPFPFPDISRRVWNEEGEDGLPRPKDPVIPSIQLFPGLREPEEVQGSVDIALSVKCDNEKMIVAVEKDSFQASGYSGMDVTLLDPTCKAKMNGTHFVLESPLNGCGTRPRWSALDGVVYYNSIVIQVPALGDSSGWPDGYEDLESGDNGFPGDMDEGDASLFTRPEIVVFNCSLQQVRNPSSFQEQPHGNITFNMELYNTDLFLVPSQGVFSVPENGHVYVEVSVTKAEQELGFAIQTCFISPYSNPDRMSHYTIIENICPKDESVKFYSPKRVHFPIPQADMDKKRFSFVFKPVFNTSLLFLQCELTLCTKMEKHPQKLPKCVPPDEACTSLDASIIWAMMQNKKTFTKPLAVIHHEAESKEKGPSMKEPNPISPPIFHGLDTLTVMGIAFAAFVIGALLTGALWYIYSHTGETAGRQQVPTSPPASENSSAAHSIGSTQSTPCSSSSTA					percentage of EdU-negative (MCF7; [2]): 24.6 ± 1.9%; percentage of EdU-negative (MCF7; [3]): 23.7 ± 2.4%; percentage of EdU-negative (hTERT-HMEC; [2]): 4.94 ± 0.63%; percentage of EdU-negative (hTERT-HMEC; [3]): 5.484 ± 0.021%
MLLAWVQAFLVSNMLLAEAYGSGGCFWDNGHLYREDQTSPAPGLRCLNWLDAQSGLASAPVSGAGNHSYCRNPDEDPRGPWCYVSGEAGVPEKRPCEDLRCPETTSQALPAFTTEIQEASEGPGADEVQVFAPANALPARSEAAAVQPVIGISQRVRMNSKEKKDLGTLGYVLGITMMVIIIAIGAGIILGYSYKRGKDLKEQHDQKVCEREMQRITLPLSAFTNPTCEIVDEKTVVVHTSQTPVDPQEGTTPLMGQAGTPGA [Q96FE7]	24.9 ± 2	25.1 ± 0.47	4.79 ± 0.62	5.22 ± 0.39	
MLLLFSVILISWVSTVGGEGTLCDFPKIHHGFLYDEEDYNPFSQVPTGEVFYYSCEYNFVSPSKSFWTRITCTEEGWSPTPKCLRMCSFPFVKNGHSESSGLIHLEGDTVQIICNTGYSLQNNEKNISCVERGWSTPPICSFTKGECHVPILEANVDAQPKKESYKVGDVLKFSCRKNLIRVGSDSVQCYQFGWSPNFPTCKGQVRSCGPPPQLSNGEVKEIRKEEYGHNEVVEYDCNPNFIINGPKKIQCVDGEWTTLPTCVEQVKTCGYIPELEYGYVQPSVPPYQHGVSVEVNCRNEYAMIGNNMITCINGIWTELPMCVATHQLKRCKIAGVNIKTLLKLSGKEFNHNSRIRYRCSDIFRYRHSVCINGKWNPEVDCTEKREQFCPPPPQIPNAQNMTTTVNYQDGEKVAVLCKENYLLPEAKEIVCKDGRWQSLPRCVESTAYCGPPPSINNGDTTSFPLSVYPPGSTVTYRCQSFYKLQGSVTVTCRNKQWSEPPRCLDPCVVSEENMNKNNIQLKWRNDGKLYAKTGDAVEFQCKFPHKAMISSPPFRAICQEGKFEYPICE [Q9BXR6]					percentage of EdU-negative (MCF7; protein concentration 0.024 µM): 25.7 ± 0.37%; percentage of EdU-negative (MCF7; protein concentration 0.24 µM): 30.6 ± 1.7%; percentage of EdU-negative (hTERT-HMEC; protein concentration 0.024 µM): 4.32 ± 0.27%; percentage of EdU-negative (hTERT-HMEC; protein concentration 0.24 µM): 5.71 ± 1.3%
MALEKSLVRLLLLVLILLVLGWVQPSLGKESRAKKFQRQHMDSDSSPSSSSTYCNQMMRRRNMTQGRCKPVNTFVHEPLVDVQNVCFQEKVTCKNGQGNCYKSNSSMHITDCRLTNGSRYPNCAYRTSPKERHIIVACEGSPYVPVHFDASVEDST					percentage of EdU-negative (MCF7; [4]): 25.8 ± 0.52%; percentage of EdU-negative (MCF7; [5]): 24.63 ± 0.044%; percentage of EdU-negative (hTERT-HMEC; [4]): 4.76 ± 0.11%; percentage of EdU-negative (hTERT-HMEC; [5]): 4.52 ± 0.25%
MPKGRQKVPHLDAPLGLPTCLWLELAGLFLLVPWVMGLAGTGGPDGQGTGGPSWAVHLESLEGDGEEETLEQQADALAQAAGLVNAGRIGELQGHYLFVQPAGHRPALEVEAIRQQVEAVLAGHEAVRWHSEQRLLRRAKRSVHFNDPKYPQQWHLNNRRSPGRDINVTGVWERNVTGRGVTVVVVDDGVEHTIQDIAPNYSPEGSYDLNSNDPDPMPHPDVENGNHHGTRCAGEIAAVPNNSFCAVGVAYGSRIAGIRVLDGPLTDSMEAVAFNKHYQINDIYSCSWGPDDDGKTVDGPHQLGKAALQHGVIAGRQGFGSIFVVASGNGGQHNDNCNYDGYANSIYTVTIGAVDEEGRMPFYAEECASMLAVTFSGGDKMLRSIVTTDWDLQKGTGCTEGHTGTSAAAPLAAGMIALMLQVRPCLTWRDVQHIIVFTATRYEDRRAEWVTNEAGFSHSHQHGFGLLNAWRLVNAAKIWTSVPYLASYVSPVLKENKAIPQSPRSLEVLWNVSRMDLEMSGLKTLEHVAVTVSITHPRRGSLELKLFCPSGMMSLIGAPRSMDSDPNGFNDWTFSTVRCWGERARGTYRLVIRDVGDESFQVGILRQWQLTLYGSVWSAVDIRDRQRLLESAMSGKYLHDDFALPCPPGLKIPEEDGYTITPNTLKTLVLVGCFTVFWTVYYMLEVYLSQRNVASNQVCRSGPCHWPHRSRKAKEEGTELESVPLCSSKDPDEVETESRGPPTTSDLLAPDLLEQGDWSLSQNKSALDCPHQHLDVPHGKEEQIC	25.2 ± 2.4	25.9 ± 0.42	4.85 ± 0.1	5.83 ± 0.0087	
MVATKTFALLLLSLFLAVGLGEKKEGHFSALPSLPVGSHAKVSSPQPRGPRYAEGTFISDYSIAMDKIHQQDFVNWLLAQKGKKNDWKHNITQREARALELASQANRKEEEAVEPQSSPAKNPSDEDLLRDLLIQELLACLLDQTNLCRLRSR	26.1 ± 1.5	24.3 ± 2.4	4.89 ± 0.063	6.12 ± 0.68	
MRLLVLLWGCLLLPGYEALEGPEEISGFEGDTVSLQCTYREELRDHRKYWCRKGGILFSRCSGTIYAEEEGQETMKGRVSIRDSRQELSLIVTLWNLTLQDAGEYWCGVEKRGPDESLLISLFVFPGPCCPPSPSPTFQPLATTRLQPKAKAQQTQPPGLTSPGLYPAATTAKQGKTGAEAPPLPGTSQYGHERTSQYTGTSPHPATSPPAGSSRPPMQLDSTSAEDTSPALSSGSSKPRVSIPMVRILAPVLVLLSLLSAAGLIAFCSHLLLWRKEAQQATETQRNEKFCLSRLTAEEKEAPSQAPEGDVISMPPLHTSEEELGFSKFVSA [K7EL06]	26 ± 1.2	24.7 ± 3.6	5.2 ± 0.081	5.26 ± 0.58	
MAPRRARGCRTLGLPALLLLLLLRPPATRGITCPPPMSVEHADIWVKSYSLYSRERYICNSGFKRKAGTSSLTECVLNKATNVAHWTTPSLKCIRDPALVHQRPAPPSTVTTAGVTPQPESLSPSGKEPAASSPSSNNTAATTAAIVPGSQLMPSKSPSTGTTEISSHESSHGTPSQTTAKNWELTASASHQPPGVYPQGHSDTTVAISTSTVLLCGLSAVSLLACYLKSRQTPPLASVEMEAMEALPVTWGTSSRDEDLENCSHHL					percentage of EdU-negative (MCF7; [6]): 27.1 ± 0.76%; percentage of EdU-negative (MCF7; [7]): 25.6 ± 2.6%; percentage of EdU-negative (hTERT-HMEC; [6]): 5.18 ± 0.25%; percentage of EdU-negative (hTERT-HMEC; [7]): 6.6 ± 0.68%
MWKRWLALALALVAVAWVRAEEELRSKSKICANVFCGAGRECAVTEKGEPTCLCIEQCKPHKRPVCGSNGKTYLNHCELHRDACLTGSKIQVDYDGHCKEKKSVSPSASPVVCYQSNRDELRRRIIQWLEAEIIPDGWFSKGSNYSEILDKYFKNFDNGDSRLDSSEFLKFVEQNETAINITTYPDQENNKLLRGLCVDALIELSDENADWKLSFQEFLKCLNPSFNPPEKKCALEDETYADGAETEVDCNRCVCACGNWVCTAMTCDGKNQKGAQTQTEEEMTRYVQELQKHQETAEKTKRVSTKEI					percentage of EdU-negative (MCF7; [4]): 25.7 ± 0.72%; percentage of EdU-negative (MCF7; [5]): 26.2 ± 3.6%; percentage of EdU-negative (hTERT-HMEC; [4]): 4.68 ± 0.16%; percentage of EdU-negative (hTERT-HMEC; [5]): 5.53 ± 0.92%
MVPEEEPQDREKGLWWFQLKVWSMAVVSILLLSVCFTVSSVVPHNFMYSKTVKRLSKLREYQQYHPSLTCVMEGKDIEDWSCCPTPWTSFQSSCYFISTGMQSWTKSQKNCSVMGADLVVINTREEQDFIIQNLKRNSSYFLGLSDPGGRRHWQWVDQTPYNENVTFWHSGEPNNLDERCAIINFRSSEEWGWNDIHCHVPQKSICKMKKIYI [Q8WTT0]	27.712 ± 0.0085	26.5 ± 0.9	4.78 ± 0.84	4.64 ± 1	
